Data taken from US20170165373A1.

Target: human BCMA (huBCMA), full length, on cells (human) (UniProt Q02223)
Test: FACS, H929 cells, negative control

Chain of human BCMA (huBCMA), full length, on cells (human) (Q02223 whole entry N81S): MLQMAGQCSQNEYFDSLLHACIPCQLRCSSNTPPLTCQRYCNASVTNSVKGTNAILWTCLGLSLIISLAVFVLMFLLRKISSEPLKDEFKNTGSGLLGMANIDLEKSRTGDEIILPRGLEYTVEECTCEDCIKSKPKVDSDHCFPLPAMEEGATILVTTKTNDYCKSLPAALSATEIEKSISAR

MFI: 8
Substance: hu IgG1 (antibody)
